Experimental findings from the Immune Epitope Database (IEDB) are described below.

A value given as a limit tells only on which side of the number the result lay.

In test [1] the target is HLA-A*68:02. Description: IEDB peptide-MHC binding, purified MHC/competitive/radioactivity; filed as Kd, often an IC50 or EC50 that approximates it; ≥ and ≤ were set here for values at or beyond the usual limits of such assays.
Test [2] has as its target HLA-B*58:01. The description is as above.
The target in test [3] is HLA-B*57:01. The description is as above.
In the next test the target is HLA-B*53:01. Described as above.
Test [4] addresses HLA-B*40:01. Description: IEDB peptide-MHC binding, purified MHC/competitive/fluorescence; filed as Kd, often an IC50 or EC50 that approximates it; ≥ and ≤ were set here for values at or beyond the usual limits of such assays.
Test [5] has as its target HLA-B*15:01. The test is described as above. Particulars: source organism: Escherichia coli O139:H28 str. E24377A.
The target of test [6] is HLA-A*01:01. The test can be described thus: IEDB peptide-MHC binding, purified MHC/competitive/radioactivity; filed as Kd, often an IC50 or EC50 that approximates it; ≥ and ≤ were set here for values at or beyond the usual limits of such assays.
The target in the next test is HLA-B*07:02. The test can be described thus: IEDB peptide-MHC binding, purified MHC/direct/fluorescence; filed as Kd, often an IC50 or EC50 that approximates it; ≥ and ≤ were set here for values at or beyond the usual limits of such assays.
The target in test [7] is HLA-B*51:01. The description is as above.
In another test the target is HLA-B*45:06. The test can be described thus: IEDB peptide-MHC binding, purified MHC/competitive/fluorescence; filed as Kd, often an IC50 or EC50 that approximates it; ≥ and ≤ were set here for values at or beyond the usual limits of such assays.
A further test concerns the target HLA-B*83:01. The test is described as above.
For another test, the target named is HLA-B*15:42. The description is as above.
In a further test the target is HLA-A*03:01. Description: IEDB peptide-MHC binding, purified MHC/direct/fluorescence; filed as Kd, often an IC50 or EC50 that approximates it; ≥ and ≤ were set here for values at or beyond the usual limits of such assays. The following applies: source organism: Orthohantavirus andesense.
The target of test [8] is HLA-B*40:01. The test is described as above. Particulars: source organism: Orthohantavirus andesense.
A further test deals with HLA-A*31:01. The description is as above. Particulars: source organism: Orthohantavirus andesense.
The target in another test is HLA-B*27:05. Described as above. Particulars: source organism: Orthohantavirus andesense.
The target in test [9] is HLA-A*68:02. Described as above. Particulars: source organism: Orthohantavirus andesense.
Another test addresses HLA-A*02:12. Described as above. Particulars: source organism: Orthohantavirus andesense.
The target in the next test is HLA-B*18:01. Described as above. The following applies: source organism: Orthohantavirus andesense.
A further test concerns the target HLA-B*48:01. The test is described as above. The following applies: source organism: Orthohantavirus andesense.
Test [10] addresses HLA-B*58:01. Described as above. The following applies: source organism: Orthohantavirus andesense.
The target of the next test is HLA-B*08:01. Described as above. Particulars: source organism: Orthohantavirus andesense.
The target of the next test is HLA-A*29:02. Described as above. The following applies: source organism: Orthohantavirus andesense.
The target of test [11] is HLA-B*57:01. The test is described as above. The following applies: source organism: Orthohantavirus andesense.
The target in test [12] is HLA-A*01:01. The test is described as above. The following applies: source organism: Orthohantavirus andesense.
The target of another test is HLA-A*69:01. The test is described as above. Particulars: source organism: Orthohantavirus andesense.
The target of another test is HLA-A*11:01. The description is as above. The following applies: source organism: Orthohantavirus andesense.
The target of another test is HLA-B*46:01. The description is as above. Particulars: source organism: Orthohantavirus andesense.
Another test addresses HLA-A*02:01. Described as above. The following applies: source organism: Orthohantavirus andesense.
Test [13] concerns the target HLA-B*15:01. The description is as above. The following applies: source organism: Orthohantavirus andesense.
In a further test the target is HLA-B*39:01. Description: IEDB peptide-MHC binding, purified MHC/competitive/fluorescence; filed as Kd, often an IC50 or EC50 that approximates it; ≥ and ≤ were set here for values at or beyond the usual limits of such assays. Particulars: source organism: Orthohantavirus andesense.
For another test, the target named is HLA-B*15:17. The description is as above. The following applies: source organism: Orthohantavirus andesense.
A further test deals with HLA-A*26:01. The test is described as above. Particulars: source organism: Orthohantavirus andesense.
The target of a further test is HLA-B*27:03. Described as above. Particulars: source organism: Orthohantavirus andesense.
For test [14], the target named is HLA-B*51:01. Described as above. The following applies: source organism: Orthohantavirus andesense.
Setting [15] is: source organism: Dengue virus 3 Martinique/1243/1999.
The mark [16] stands for this setting: source organism: Dengue virus 4 Philippines/H241/1956.
[17] abbreviates: source organism: Dengue virus 1 Brazil/97-11/1997.
The mark [18] stands for this setting: source organism: Brucella abortus.
Setting [19] is: source organism: human gammaherpesvirus 4.
Where [20] appears, read: source organism: Yersinia pestis Nepal516.

One may read the Kd as a measure of binding affinity in units of concentration. In the case of SASSMINGVV, the Kd in the test with HLA-A*68:02 [1] (setting [15]) amounted to 165 nM; in the test with HLA-B*58:01 [2] (setting [15]) it was 6380 nM; in the test with HLA-B*57:01 [3] (setting [15]), 1990 nM.

Take IAVASGLLW: the Kd with HLA-B*53:01 (setting [16]) came out at 31.2 nM; with HLA-B*58:01 [2] (setting [16]), 0.661 nM; in the test with HLA-B*57:01 [3] (setting [16]), 2.21 nM.

With VASAAQRRGR, the Kd with HLA-B*58:01 [2] (setting [17]) came to 160 nM.

As for AENHFLVGL, the Kd with HLA-B*40:01 [4] (source organism: Escherichia coli O139:H28 str. E24377A) was 2.5 nM; with HLA-B*15:01 [5] it was at least 20 µM.

As for LTGGVTLFF, the Kd amounted to 107 nM with HLA-B*58:01 [2] (setting [17]) and 18.9 µM with HLA-A*01:01 [6] (setting [17]).

As to GTSLTQKVVI, the Kd with HLA-B*58:01 [2] (setting [15]) stood at 194 nM; with HLA-B*57:01 [3] (setting [15]), 2300 nM.

On to TEAKIISLL, for which the Kd in the test with HLA-B*40:01 [4] (source organism: Shigella flexneri 5 str. 8401) stood at 8.1 nM.

Turning to TALFSGVSW, the dissociation constant (Kd) stood at 49.8 nM in the test with HLA-B*53:01 (setting [15]) and 0.589 nM in the test with HLA-B*57:01 [3] (setting [15]).

For the sequence ESWEEVPYLG, the Kd with HLA-B*58:01 [2] (source organism: Dengue virus 2 Jamaica/1409/1983) was 589 nM.

As for ASGKLVTQW, the figures for the Kd with HLA-B*58:01 [2] (setting [16]) and with HLA-B*57:01 [3] (setting [16]) were 15.7 nM and 137 nM, respectively.

Take AEIEDLIFL: the Kd with HLA-B*40:01 [4] (source organism: Influenza A virus (A/swine/Italy/1509-6/97(H1N1))) stood at 0.5 nM.

On to ESSKNQTWQI, for which the Kd was 701 nM with HLA-A*68:02 [1] (setting [16]), 1590 nM with HLA-B*58:01 [2] (setting [16]), at least 23000 nM in the test with HLA-B*57:01 [3] (setting [16]) and at least 70.4 µM with HLA-A*01:01 [6] (setting [16]).

Consider LPAIIRPSF, for which the Kd is 104 nM in the test with HLA-B*07:02 (setting [18]) and at least 20000 nM in the test with HLA-B*51:01 [7] (setting [18]).

Take RPRPRTPEW: the figures for the Kd with HLA-B*45:06 (setting [19]), in the test with HLA-B*83:01 (setting [19]) and in the test with HLA-B*15:42 (setting [19]) were at least 5 µM, 426 nM and at least 5 µM, respectively.

Take QELSDAPFL: the Kd with HLA-B*40:01 [4] (source organism: Influenza A virus (A/Hokkaido/20/89(H3N2))) amounted to 2 nM.

As for MPSSYAAGM, the Kd in the test with HLA-B*51:01 [7] (source organism: Giardia lamblia ATCC 50803) came to 863 nM.

SIKFKRKLM: the Kd is at least 20 µM in the test with HLA-A*03:01; at least 20 µM with HLA-B*40:01 [8]; at least 20 µM in the test with HLA-A*31:01; at least 20000 nM with HLA-B*07:02 (source organism: Orthohantavirus andesense); at least 20 µM in the test with HLA-B*27:05; at least 20 µM with HLA-A*68:02 [9]. Moreover, the Kd with HLA-A*02:12 is at least 20 µM; in the test with HLA-B*18:01, at least 20 µM; with HLA-B*48:01, at least 20 µM; in the test with HLA-B*58:01 [10], at least 20 µM; with HLA-B*08:01 it was at least 5 µM; with HLA-A*29:02, at least 20 µM. Besides, the Kd in the test with HLA-B*57:01 [11], with HLA-A*01:01 [12], in the test with HLA-A*69:01, with HLA-A*11:01, in the test with HLA-B*46:01 and with HLA-A*02:01 was at least 20 µM in each case. Moreover, the Kd with HLA-B*15:01 [13], in the test with HLA-B*39:01, in the test with HLA-B*15:17, in the test with HLA-A*26:01, in the test with HLA-B*27:03 and in the test with HLA-B*51:01 [14] was at least 20 µM in each case.

In the case of GADTSEVHW, the Kd stood at 66.3 nM in the test with HLA-B*58:01 [2] (setting [16]) and 987 nM with HLA-B*57:01 [3] (setting [16]).

Consider QTQRSGVLW, for which the Kd in the test with HLA-B*58:01 [2] (setting [15]) worked out at 1.47 nM; with HLA-B*57:01 [3] (setting [15]) it was 18.7 nM.

On to AEYLYADGI, for which the equilibrium dissociation constant (Kd) with HLA-B*45:06 (setting [20]) was at least 5 µM; with HLA-B*40:01 [4] (setting [20]) it was 4.3 nM; with HLA-B*83:01 (setting [20]), at least 5000 nM; in the test with HLA-B*15:42 (setting [20]), at least 5 µM.
